In patent US20230167177A1 (WUXI BIOLOGICS IRELAND, published 2023):

T1: hICOS.mFC (human, UniProt Q9Y6W8 21-140)
T1 construct: not shown: mFc tag
T1 sequence (looked up): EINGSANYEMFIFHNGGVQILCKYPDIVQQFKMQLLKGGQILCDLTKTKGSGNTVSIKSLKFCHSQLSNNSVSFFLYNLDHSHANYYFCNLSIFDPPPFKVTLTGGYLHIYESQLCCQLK


Key:
hICOS.mFC = molecular target: T1, hICOS.mFC; assay: ELISA on coated hICOS.mFc, detected with HRP goat anti-human IgG
Description: (§1) After blocking with 2% BSA-PBS, 10 μg/ml and 1.0 μg/ml of testing antibodies were respectively added into the plates and incubated for 1 hour at room temperature. The secondary antibody HRP-labeled goat anti-human IgG (Bethyl A80-304P) was then added and incubated for 1 hour. Washes with PBST were performed between each step. The color reaction was developed by TMB substrate, and then stopped by 2N HCl. The absorbance was read at 450 nm using a Microplate Spectrophotometer (SpectraMax® M5e).

hPD-1.mFc = molecular target: T2, hPD-1.mFc (human, UniProt Q15116 25-170); assay: ELISA on coated hPD1 (sheet prints 'hPD1.His', text says hPD-1.mFc), detected with HRP goat anti-human IgG
T2 construct: not shown: mFc tag
Description: as §1

[1] = molecular target: T3, human CTLA-4 ECD protein (in house) (human, UniProt P16410 36-161); assay: ELISA, human CTLA4 ECD coated at 1.0 µg/ml
T3 construct: extracellular domain; also called immobilized human CTLA-4 ECD protein; hCTLA-4; not shown: 6xHis or Fc tag
Description: (§2) After blocking with 2% BSA-PBS, serial diluted antibodies were added into each well and incubated for 1 hour at room temperature. HRP-labeled goat anti-human IgG (Bethyl A80-304P) were used as the secondary antibody and incubated for 1 hour. The color was developed by TMB substrate, and then stopped by 2N HCl. The absorbance was read at 450 nm using a Microplate Spectrophotometer (SpectraMax® M5e).

[2] = molecular target: T3, human CTLA-4 ECD protein (in house); assay: competition ELISA, hCTLA4 ECD coated; competitor his-tagged hCD86
Description: (§3) After washing with PBST, biotin-labeled anti-His mAb (GenScript-A00613) was added and incubation 1 hour. […] The color reaction was developed by TMB substrate, and then stopped by 2N HCl. The absorbance was read at 450 nm using a Microplate Spectrophotometer (SpectraMax® M5e).

hCD28.mFc = molecular target: T4, hCD28.mFc (human, UniProt P10747 19-152); assay: ELISA on coated hCD28 (sheet prints 'hCD28.His', text says hCD28.mFc), detected with HRP goat anti-human IgG
T4 construct: not shown: mFc tag
Description: as §1

[3] = molecular target: T5, cynomolgus CTLA-4 ECD protein (in house) (Macaca fascicularis (cynomolgus monkey), UniProt G7PL88 36-161); assay: ELISA, cyno CTLA4 ECD coated at 1.0 µg/ml
T5 construct: also called immobilized cyno CTLA-4 ECD protein; cyno CTLA4 ECD protein; not shown: C-terminal tag: 6xHis or Fc
Description: as §2
(§4) The binding of testing antibodies to […] was assessed by ELISA and FACS as the described above. […] For FACS binding, engineered Cynomolgus CTLA4 expressing cell pool was used.

[4] = molecular target: T6, human CTLA-4 on transfected cells (human, UniProt P16410 36-223); assay: FACS on human CTLA-4 expressing cells
T6 construct: whole, on cells; also called cell surface human CTLA-4; hCTLA4 transfected cells
Description: (§5) For FACS binding, engineered human CTLA-4 expressing cells were seeded at 1×10⁵ cells/well in U-bottom 96-well plates (COSTAR 3799). After centrifugation at 1500 rpm for 4 minutes at 4° C., the supernatants were moved and the serial dilutions of antibodies in 1% BSA-DPBS were added to the cells. The plates were incubated at 4° C. for 1 hour. […] The binding of the antibodies to the cells was tested by flow cytometry and the mean fluorescence intensity (MFI) was analyzed by FlowJo.

[5] = molecular target: T3, human CTLA-4 ECD protein (in house); assay: competition FACS, biotinylated hCTLA4 ECD; competitor hCD80 on transfected cells
Description: (§6) After washing, streptavidin PE (BD Pharmingen-554061) was added to the cells and incubated at 4° C. for 1 hour. The fluorescence values were measured by flow cytometry and analyzed by FlowJo.

[6] = molecular target: T3, human CTLA-4 ECD protein (in house); assay: competition ELISA, hCTLA4 ECD coated; competitor his-tagged hCD80
Description: as §3

[7] = molecular target: T6, human CTLA-4 on transfected cells; assay: FACS on CTLA-4 transfected cells; antibody incubated in human serum at 37 C for 1 day
Description: (§7) Testing antibodies were incubated in freshly isolated human serum (serum content >90%) at 37° C. On indicated time points, an aliquot of serum treated sample was removed from the incubator and snap frozen in liquid nitrogen, and then stored at −80° C. until test. The samples were quickly thawed immediately prior to the stability test. Serial dilutions of antibodies were incubated with CTLA-4 transfected cells for 1 hour at 4° C. After washing, FITC conjugated goat anti-human IgG antibody (Jackson ImmunoResearch) was added to the cells and incubated at 4° C. for 1 hour. Finally, the cells were washed and resuspended in 1% BSA-PBS. The MFI fluorescence values were measured by flow cytometry and analyzed by FlowJo.

[8] = molecular target: T6, human CTLA-4 on transfected cells; assay: FACS on CTLA-4 transfected cells; antibody incubated in human serum at 37 C for 7 days
Description: as §7

[9] = molecular target: T6, human CTLA-4 on transfected cells; assay: FACS on CTLA-4 transfected cells; antibody incubated in human serum at 37 C for 4 days
Description: as §7

[10] = molecular target: T7, cynomolgus CTLA-4 on transfected cells (Macaca fascicularis (cynomolgus monkey), UniProt G7PL88 36-223); assay: FACS on cynomolgus CTLA4 expressing cell pool
T7 construct: also called cell surface cyno CTLA-4; Cynomolgus CTLA4 expressing cell pool
Description: as §5, §4

[11] = molecular target: T3, human CTLA-4 ECD protein (in house); assay: competition (epitope binning) ELISA on coated human CTLA4 protein; competitor 0.02 ug/ml W316-BMK1-Biotin, detected with streptavidin-HRP
Description: After washing, HRP-conjugated streptavidin were added and incubated for 1 hour. The color was developed by dispensing TMB substrate, and then stopped by 2N HCl. The absorbance was read at 450 nm using a Microplate Spectrophotometer (SpectraMax® M5e).

[12] = molecular target: T6, human CTLA-4 on transfected cells; assay: FACS on CTLA-4 transfected cells; antibody incubated in human serum at 37 C for 14 days
Description: as §7

[13] = molecular target: T3, human CTLA-4 ECD protein (in house); assay: competition FACS, biotinylated hCTLA4 ECD; competitor hCD86 on transfected cells
Description: as §6

[14] = molecular target: T6, human CTLA-4 on transfected cells; assay: FACS on CTLA-4 transfected cells; antibody incubated in human serum at 37 C for 0 days
Description: as §7

hBTLA.His = molecular target: T8, hBTLA.His (human, UniProt Q7Z6A9 31-157, limits assumed); assay: ELISA on coated BTLA.His, detected with HRP goat anti-human IgG
T8 construct: not shown: His tag
Description: as §1

[15] = molecular target: T6, human CTLA-4 on transfected cells; assay: cell-based or functional assay
[16] = molecular target: T7, cynomolgus CTLA-4 on transfected cells; assay: FACS affinity on cyno CTLA-4 transfected cells (cPro1), quantitative beads
Description: (§8) Human CTLA-4 or cyno CTLA-4 transfected cells were plated into 96-well U-bottom plates (BD) at a density of 5×10⁴ cells/well. Testing antibodies were 1:2-fold serially diluted in 1% BSA-PBS and incubated with the cells at 4° C. for 1 hr. After centrifugation at 1500 rpm for 4 min, the supernatant was discarded. The secondary antibody FITC conjugated goat anti-human IgG Fc (Jackson Immunoresearch Lab) was added and incubated at 4° C. in the dark for 30 min. The cells were then washed once and re-suspended in 1% BSA-PBS for the analysis by flow cytometry (BD CantoII). Fluorescence intensity was converted to bound molecules/cell based on the quantitative beads (Quantum™ MESF Kits, Bangs Laboratories). KD was calculated using Graphpad Prism5.

[17] = molecular target: T6, human CTLA-4 on transfected cells; assay: FACS affinity on human CTLA-4 transfected cells (hPro1), quantitative beads
Description: as §8

[18] = molecular target: T9, human CTLA-4 ECD, His-tagged (human, UniProt P16410 36-161); assay: SPR (Biacore T200), antibody captured by anti-human IgG Fc, CTLA-4 ECD his as analyte
T9 construct: extracellular domain; also called W316.hprol.ECD.his; hCTLA-4.His; not shown: hexa-histidine (6xHis) tag
Description: The experiment was to measure the on-rate constant (ka) and off-rate constant (kd) of the antibodies to CTLA-4 ECD based on SPR technology. The affinity constant (KD) is thus consequently determined. Biacore T200, Series S Sensor Chip CM5, Amine Coupling Kit, and 10XHBS-EP were from GE Healthcare. […] In immobilization step, the activation buffer was prepared by mixing 400 mM EDC and 100 mM NHS immediately prior to injection. The CM5 sensor chip was activated for 420 s with the activation buffer. 30 μg/mL of goat anti-human IgG Fc antibody in 10 mM NaAc (pH 4.5) was then injected to Fc1-Fc4 channels for 200 s at a flow rate of 5 μL/min. The chip was deactivated by 1 M ethanolamine-HCl (GE). Then the antibodies were captured on the chip. Briefly, 4 μg/mL antibodies in running buffer (HBS-EP+) was injected individually to Fc3 channel for 30 s at a flow rate of 10 μL/min. […] Regeneration buffer (10 mM Glycine pH 1.5) was injected at 10 μL/min for 30 s following every dissociation phase.

T6 sequence (P16410 36-223): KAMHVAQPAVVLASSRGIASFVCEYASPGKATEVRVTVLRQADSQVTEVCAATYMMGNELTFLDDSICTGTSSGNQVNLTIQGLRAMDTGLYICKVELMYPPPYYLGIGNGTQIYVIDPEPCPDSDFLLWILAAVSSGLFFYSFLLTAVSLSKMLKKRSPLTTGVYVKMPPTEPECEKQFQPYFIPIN
T9 sequence (P16410 36-161): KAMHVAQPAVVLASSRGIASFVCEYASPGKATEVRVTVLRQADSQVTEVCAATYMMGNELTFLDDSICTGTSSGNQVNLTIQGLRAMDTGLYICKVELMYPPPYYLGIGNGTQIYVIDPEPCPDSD
T3 sequence (P16410 36-161): as above
T7 sequence (G7PL88 entry or part of it limits assumed): as the sequence (P16410 36-223) above, with S14N, I18T, L106M counted along it
T2 sequence (Q15116 25-170): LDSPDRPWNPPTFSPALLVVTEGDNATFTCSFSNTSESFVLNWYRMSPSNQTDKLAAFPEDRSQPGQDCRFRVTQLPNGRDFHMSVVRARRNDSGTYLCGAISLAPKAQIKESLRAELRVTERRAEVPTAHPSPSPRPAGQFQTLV
T5 sequence (G7PL88 entry or part of it limits assumed): as the sequence (P16410 36-161) above, with S14N, I18T, L106M counted along it

binding result (hICOS.mFC) | binding result (hPD-1.mFc) | EC50 [1] | IC50 [2] | binding result (hCD28.mFc) | EC50 [3] | EC50 [4] | IC50 [5] | IC50 [6] | EC50 [7] | EC50 [8] | EC50 [9] | EC50 [10] | IC50 (read off the curve) [11] | EC50 [12] | IC50 [13] | EC50 [14] | binding result (hBTLA.His) | Binder | also measured
no binding (tested: 10 ug/ml) | no binding (tested: 10 ug/ml) | 98.3 pM | 2060 pM | no binding (tested: 10 ug/ml) | 73.2 pM | 325 pM | 109 pM | 1100 pM | 221 pM | 222 pM | 238 pM | 1500 pM | ~3000 pM | 244 pM | 220 pM | 214 pM | no binding (tested: 10 ug/ml) | W3166-z13 (Fc fusion, Tested as VHH linked to human IgG1 Fc; also called humanized VHH antibody W3166-z13; W3166-z13 VHH fused with Fc of human IgG1; not shown: human IgG1 Fc region) QVQLVESGGGLVQPGGSLRLSCAASGRTFSSYAMGWFRQAPGMEREFVASIRWSDQTTYVPNSVKGRFTISRDNSKNTLYLQMNSLRPEDTAVYYCATGPTRLSFYSGNYRTYDSWGQGTLVTVSS | 
no binding (tested: 10 ug/ml) | no binding (tested: 10 ug/ml) | 51.2 pM | 1670 pM | no binding (tested: 10 ug/ml) | 40.1 pM | 298 pM | 78.6 pM | 908 pM | 195 pM | 221 pM | 193 pM | 1160 pM | ~3000 pM | 199 pM | 163 pM | 190 pM | no binding (tested: 10 ug/ml) | W3166-z17 (Fc fusion, Tested as VHH linked to human IgG1 Fc; also called humanized VHH antibody W3166-z17; W3166-z17 VHH fused with Fc of human IgG1; not shown: human IgG1 Fc region) QVQLVESGGGVVQPGGSLRLSCAASGRTFSSYAMGWFRQAPGKEREFVASIRWSDQTTYVPNSVKGRFTISRDNSKNTLYLQMNSLRPEDTAVYYCATGPTRLSFYSGNYRTYDSWGQGTLVTVSS | EC50 in inducing ADCC effect [15]: 247 pM; Kd [16]: 140 pM; Kd [17]: 49 pM; Kd [18]: 3130 pM; koff [18]: 0.0015 s⁻¹; kon [18]: 481000 M⁻¹ s⁻¹
